Biological target: Duffy antigen receptor for chemokines (DARC) (human) (UniProt Q16570)
Test: SPR

In order of rising Kd:
1. HlgA (from UniProt P0A074 30-309) (natural protein)  29.2 nM
2. LukE (from UniProt O54081 29-314) (natural protein)  56.4 nM
3. HlgC (from UniProt Q07227 30-315) (natural protein)  229 nM

Source: PMC4578157
